The text below walks through data of article PMC8390522, “The phototroph-specific β-hairpin structure of the γ subunit of FoF1-ATP synthase is important for efficient ATP synthesis of cyanobacteria” (The Journal of Biological Chemistry, 2021).

This data set deals with the molecule itself. Kind of data set: SDS-PAGE with immunoblot (oligomer resistant to SDS); purified FoF1 on 16% polyacrylamide gels, immunoblot with anti-c-subunit antibodies; the c subunit runs as a ring above the α subunit.

B1: c subunit of FoF1 ATP synthase of Synechocystis sp. PCC 6803 (natural protein, Synechocystis sp. PCC 6803 (endogenous), UniProt P27182 1-81, looked up)
chain: MDSTVAAASVIAAALAVGLGAIGPGIGQGNASGQAVSGIARQPEAEGKIRGTLLLTLAFMESLTIYGLVIALVLLFANPFA
notes: ATP synthase c subunit, Synechocystis sp; Forms the c-ring; also called ssl2615; c-ring; source: endogenous, Synechocystis sp
For B1, the binding result was “binds”.
